Source: patent US20240123070A1 (SHANGHAI GENBASE BIOTECHNOLOGY, published 2024)

target: KRAS G13D antigen (G13D-RT6, SEQ ID NO: 20) loaded on Lovo-DPA0301:DPB0501 cells (human); experiment: cell-based or functional assay

Binder	TCR Mut RLU/WT RLU
B8.2.4 TCR mutant β98P-Q (TCR, V domains shown) V domain 1: AQKITQTQPGMFVQEKEAVTLDCTYDTSDPSYGLFWYKQPSSGEMIFLIYQGSYDQQNATEGRYSLNFQKARKSANLVISASQLGDSAMYFCAMRERTGTASKLTFGTGTRLQVTL V domain 2: DVKVTQSSRYLVKRTGEKVFLECVQDMDHENMFWYRQDPGLGLRLIYFSYDVKMKEKGDIPEGYSVSREKKERFSLILESASTNQTSMYLCASSQTVQPQHFGDGTRLSILE	0.45 ratio
B8.2.4 TCR mutant β98P-S (TCR, V domains shown) V domain 1: AQKITQTQPGMFVQEKEAVTLDCTYDTSDPSYGLFWYKQPSSGEMIFLIYQGSYDQQNATEGRYSLNFQKARKSANLVISASQLGDSAMYFCAMRERTGTASKLTFGTGTRLQVTL V domain 2: DVKVTQSSRYLVKRTGEKVFLECVQDMDHENMFWYRQDPGLGLRLIYFSYDVKMKEKGDIPEGYSVSREKKERFSLILESASTNQTSMYLCASSQTVSPQHFGDGTRLSILE	0.94 ratio
B8.2.4 TCR mutant β98P-T (TCR, V domains shown) V domain 1: AQKITQTQPGMFVQEKEAVTLDCTYDTSDPSYGLFWYKQPSSGEMIFLIYQGSYDQQNATEGRYSLNFQKARKSANLVISASQLGDSAMYFCAMRERTGTASKLTFGTGTRLQVTL V domain 2: DVKVTQSSRYLVKRTGEKVFLECVQDMDHENMFWYRQDPGLGLRLIYFSYDVKMKEKGDIPEGYSVSREKKERFSLILESASTNQTSMYLCASSQTVTPQHFGDGTRLSILE	0.47 ratio
B8.2.4 TCR mutant β98P-V (TCR, V domains shown) V domain 1: AQKITQTQPGMFVQEKEAVTLDCTYDTSDPSYGLFWYKQPSSGEMIFLIYQGSYDQQNATEGRYSLNFQKARKSANLVISASQLGDSAMYFCAMRERTGTASKLTFGTGTRLQVTL V domain 2: DVKVTQSSRYLVKRTGEKVFLECVQDMDHENMFWYRQDPGLGLRLIYFSYDVKMKEKGDIPEGYSVSREKKERFSLILESASTNQTSMYLCASSQTVVPQHFGDGTRLSILE	0.63 ratio
B8.2.4 TCR mutant β98P-W (TCR, V domains shown) V domain 1: AQKITQTQPGMFVQEKEAVTLDCTYDTSDPSYGLFWYKQPSSGEMIFLIYQGSYDQQNATEGRYSLNFQKARKSANLVISASQLGDSAMYFCAMRERTGTASKLTFGTGTRLQVTL V domain 2: DVKVTQSSRYLVKRTGEKVFLECVQDMDHENMFWYRQDPGLGLRLIYFSYDVKMKEKGDIPEGYSVSREKKERFSLILESASTNQTSMYLCASSQTVWPQHFGDGTRLSILE	0.81 ratio
B8.2.4 TCR mutant β98P-Y (TCR, V domains shown) V domain 1: AQKITQTQPGMFVQEKEAVTLDCTYDTSDPSYGLFWYKQPSSGEMIFLIYQGSYDQQNATEGRYSLNFQKARKSANLVISASQLGDSAMYFCAMRERTGTASKLTFGTGTRLQVTL V domain 2: DVKVTQSSRYLVKRTGEKVFLECVQDMDHENMFWYRQDPGLGLRLIYFSYDVKMKEKGDIPEGYSVSREKKERFSLILESASTNQTSMYLCASSQTVYPQHFGDGTRLSILE	0.25 ratio
B8.2.4 TCR mutant β95Q-A (TCR, V domains shown) V domain 1: AQKITQTQPGMFVQEKEAVTLDCTYDTSDPSYGLFWYKQPSSGEMIFLIYQGSYDQQNATEGRYSLNFQKARKSANLVISASQLGDSAMYFCAMRERTGTASKLTFGTGTRLQVTL V domain 2: DVKVTQSSRYLVKRTGEKVFLECVQDMDHENMFWYRQDPGLGLRLIYFSYDVKMKEKGDIPEGYSVSREKKERFSLILESASTNQTSMYLCASSATVPPQHFGDGTRLSILE	0.86 ratio
B8.2.4 TCR mutant β95Q-C (TCR, V domains shown) V domain 1: AQKITQTQPGMFVQEKEAVTLDCTYDTSDPSYGLFWYKQPSSGEMIFLIYQGSYDQQNATEGRYSLNFQKARKSANLVISASQLGDSAMYFCAMRERTGTASKLTFGTGTRLQVTL V domain 2: DVKVTQSSRYLVKRTGEKVFLECVQDMDHENMFWYRQDPGLGLRLIYFSYDVKMKEKGDIPEGYSVSREKKERFSLILESASTNQTSMYLCASSCTVPPQHFGDGTRLSILE	1.14 ratio
B8.2.4 TCR mutant β95Q-D (TCR, V domains shown) V domain 1: AQKITQTQPGMFVQEKEAVTLDCTYDTSDPSYGLFWYKQPSSGEMIFLIYQGSYDQQNATEGRYSLNFQKARKSANLVISASQLGDSAMYFCAMRERTGTASKLTFGTGTRLQVTL V domain 2: DVKVTQSSRYLVKRTGEKVFLECVQDMDHENMFWYRQDPGLGLRLIYFSYDVKMKEKGDIPEGYSVSREKKERFSLILESASTNQTSMYLCASSDTVPPQHFGDGTRLSILE	0.6 ratio
B8.2.4 TCR mutant β95Q-E (TCR, V domains shown) V domain 1: AQKITQTQPGMFVQEKEAVTLDCTYDTSDPSYGLFWYKQPSSGEMIFLIYQGSYDQQNATEGRYSLNFQKARKSANLVISASQLGDSAMYFCAMRERTGTASKLTFGTGTRLQVTL V domain 2: DVKVTQSSRYLVKRTGEKVFLECVQDMDHENMFWYRQDPGLGLRLIYFSYDVKMKEKGDIPEGYSVSREKKERFSLILESASTNQTSMYLCASSETVPPQHFGDGTRLSILE	0.81 ratio
B8.2.4 TCR mutant β95Q-F (TCR, V domains shown) V domain 1: AQKITQTQPGMFVQEKEAVTLDCTYDTSDPSYGLFWYKQPSSGEMIFLIYQGSYDQQNATEGRYSLNFQKARKSANLVISASQLGDSAMYFCAMRERTGTASKLTFGTGTRLQVTL V domain 2: DVKVTQSSRYLVKRTGEKVFLECVQDMDHENMFWYRQDPGLGLRLIYFSYDVKMKEKGDIPEGYSVSREKKERFSLILESASTNQTSMYLCASSFTVPPQHFGDGTRLSILE	0.34 ratio
B8.2.4 TCR mutant β95Q-G (TCR, V domains shown) V domain 1: AQKITQTQPGMFVQEKEAVTLDCTYDTSDPSYGLFWYKQPSSGEMIFLIYQGSYDQQNATEGRYSLNFQKARKSANLVISASQLGDSAMYFCAMRERTGTASKLTFGTGTRLQVTL V domain 2: DVKVTQSSRYLVKRTGEKVFLECVQDMDHENMFWYRQDPGLGLRLIYFSYDVKMKEKGDIPEGYSVSREKKERFSLILESASTNQTSMYLCASSGTVPPQHFGDGTRLSILE	1.03 ratio
B8.2.4 TCR mutant β95Q-H (TCR, V domains shown) V domain 1: AQKITQTQPGMFVQEKEAVTLDCTYDTSDPSYGLFWYKQPSSGEMIFLIYQGSYDQQNATEGRYSLNFQKARKSANLVISASQLGDSAMYFCAMRERTGTASKLTFGTGTRLQVTL V domain 2: DVKVTQSSRYLVKRTGEKVFLECVQDMDHENMFWYRQDPGLGLRLIYFSYDVKMKEKGDIPEGYSVSREKKERFSLILESASTNQTSMYLCASSHTVPPQHFGDGTRLSILE	0.68 ratio
B8.2.4 TCR mutant β95Q-I (TCR, V domains shown) V domain 1: AQKITQTQPGMFVQEKEAVTLDCTYDTSDPSYGLFWYKQPSSGEMIFLIYQGSYDQQNATEGRYSLNFQKARKSANLVISASQLGDSAMYFCAMRERTGTASKLTFGTGTRLQVTL V domain 2: DVKVTQSSRYLVKRTGEKVFLECVQDMDHENMFWYRQDPGLGLRLIYFSYDVKMKEKGDIPEGYSVSREKKERFSLILESASTNQTSMYLCASSITVPPQHFGDGTRLSILE	0.74 ratio
B8.2.4 TCR mutant β95Q-K (TCR, V domains shown) V domain 1: AQKITQTQPGMFVQEKEAVTLDCTYDTSDPSYGLFWYKQPSSGEMIFLIYQGSYDQQNATEGRYSLNFQKARKSANLVISASQLGDSAMYFCAMRERTGTASKLTFGTGTRLQVTL V domain 2: DVKVTQSSRYLVKRTGEKVFLECVQDMDHENMFWYRQDPGLGLRLIYFSYDVKMKEKGDIPEGYSVSREKKERFSLILESASTNQTSMYLCASSKTVPPQHFGDGTRLSILE	0.3 ratio
B8.2.4 TCR mutant β95Q-L (TCR, V domains shown) V domain 1: AQKITQTQPGMFVQEKEAVTLDCTYDTSDPSYGLFWYKQPSSGEMIFLIYQGSYDQQNATEGRYSLNFQKARKSANLVISASQLGDSAMYFCAMRERTGTASKLTFGTGTRLQVTL V domain 2: DVKVTQSSRYLVKRTGEKVFLECVQDMDHENMFWYRQDPGLGLRLIYFSYDVKMKEKGDIPEGYSVSREKKERFSLILESASTNQTSMYLCASSLTVPPQHFGDGTRLSILE	0.64 ratio
B8.2.4 TCR mutant β95Q-M (TCR, V domains shown) V domain 1: AQKITQTQPGMFVQEKEAVTLDCTYDTSDPSYGLFWYKQPSSGEMIFLIYQGSYDQQNATEGRYSLNFQKARKSANLVISASQLGDSAMYFCAMRERTGTASKLTFGTGTRLQVTL V domain 2: DVKVTQSSRYLVKRTGEKVFLECVQDMDHENMFWYRQDPGLGLRLIYFSYDVKMKEKGDIPEGYSVSREKKERFSLILESASTNQTSMYLCASSMTVPPQHFGDGTRLSILE	0.99 ratio
B8.2.4 TCR mutant β95Q-N (TCR, V domains shown) V domain 1: AQKITQTQPGMFVQEKEAVTLDCTYDTSDPSYGLFWYKQPSSGEMIFLIYQGSYDQQNATEGRYSLNFQKARKSANLVISASQLGDSAMYFCAMRERTGTASKLTFGTGTRLQVTL V domain 2: DVKVTQSSRYLVKRTGEKVFLECVQDMDHENMFWYRQDPGLGLRLIYFSYDVKMKEKGDIPEGYSVSREKKERFSLILESASTNQTSMYLCASSNTVPPQHFGDGTRLSILE	0.6 ratio
B8.2.4 TCR mutant β95Q-P (TCR, V domains shown) V domain 1: AQKITQTQPGMFVQEKEAVTLDCTYDTSDPSYGLFWYKQPSSGEMIFLIYQGSYDQQNATEGRYSLNFQKARKSANLVISASQLGDSAMYFCAMRERTGTASKLTFGTGTRLQVTL V domain 2: DVKVTQSSRYLVKRTGEKVFLECVQDMDHENMFWYRQDPGLGLRLIYFSYDVKMKEKGDIPEGYSVSREKKERFSLILESASTNQTSMYLCASSPTVPPQHFGDGTRLSILE	0.21 ratio
B8.2.4 TCR mutant β95Q-R (TCR, V domains shown) V domain 1: AQKITQTQPGMFVQEKEAVTLDCTYDTSDPSYGLFWYKQPSSGEMIFLIYQGSYDQQNATEGRYSLNFQKARKSANLVISASQLGDSAMYFCAMRERTGTASKLTFGTGTRLQVTL V domain 2: DVKVTQSSRYLVKRTGEKVFLECVQDMDHENMFWYRQDPGLGLRLIYFSYDVKMKEKGDIPEGYSVSREKKERFSLILESASTNQTSMYLCASSRTVPPQHFGDGTRLSILE	0.43 ratio
B8.2.4 TCR mutant β95Q-S (TCR, V domains shown) V domain 1: AQKITQTQPGMFVQEKEAVTLDCTYDTSDPSYGLFWYKQPSSGEMIFLIYQGSYDQQNATEGRYSLNFQKARKSANLVISASQLGDSAMYFCAMRERTGTASKLTFGTGTRLQVTL V domain 2: DVKVTQSSRYLVKRTGEKVFLECVQDMDHENMFWYRQDPGLGLRLIYFSYDVKMKEKGDIPEGYSVSREKKERFSLILESASTNQTSMYLCASSSTVPPQHFGDGTRLSILE	0.61 ratio
B8.2.4 TCR mutant β95Q-T (TCR, V domains shown) V domain 1: AQKITQTQPGMFVQEKEAVTLDCTYDTSDPSYGLFWYKQPSSGEMIFLIYQGSYDQQNATEGRYSLNFQKARKSANLVISASQLGDSAMYFCAMRERTGTASKLTFGTGTRLQVTL V domain 2: DVKVTQSSRYLVKRTGEKVFLECVQDMDHENMFWYRQDPGLGLRLIYFSYDVKMKEKGDIPEGYSVSREKKERFSLILESASTNQTSMYLCASSTTVPPQHFGDGTRLSILE	0.59 ratio
